In patent US20140322216A1 (University of Pennsylvania, published 2014):

B1: scFv 2G9 (scFv, V domains shown)
VH: QVQLQESGPGLVKPSETLSLSCTVSGGSISSSSYYWAWIRQPPGKGLEWIGNIYYSGSTYYNPSLKSRVTISVDTSKNQFSLKLSSVTAADTAVYYCARFPLIRGYRYRYDEYWGQGTLVTVSS
VL: DIVMTQSPLSLPVTPGEAASISCRSSQSLLHRDGYHYLNWFLQKPGQSPQLLIYLGSNRASGVPDRFSGSGSGTDFTLKISRVEAEDVGVYYCMQAPQTPRTLLGQGTKLEIK
notes: Human scFv secreted by yeast, one polypeptide with His and V5 tags
B2: scFv 4G5 (scFv, V domains shown)
VH: QVQLQESGLGLVKPSETLSLTCAVSGYSITSGYYWGWIRQTPGKGLEWIGRIYYGGSTHYNPSLQSRVTISVDTAKNQFSLKLSSVTAADTAVYYCARDRNYQSLSGYCLDYWGQGKVVTVSS
VL: EIVLTQSPGTLSVSPGERATLSCRASQSVSSHIAWYQQKPGQAPRLLIHGASTRATGVPARFSGSGSGTEFTLTISSLQSEDFAVYYCQQYNKWPPEYTFGQGTKLEIK
notes: as for B1
B3: scFv 3D8 (scFv, V domains shown)
VH: QVQLVQSGGGLAQPGGSLRLSCAASGSSFSTFVLSWVRQTPGKGLQWVSTISGSGTSTYYADSVKGRFTVSRDNAKNTQYLQMNSLRAEDTAIYYCARHKSFGVQWLWGQGALVVRLL
VL: VHIVMTQSPLSLPVTLGQPASISCWSSQSLVYGDGNTYLNWFQQRPGQSPRRLIYKVSNRDSGVPDRFSGSGSGTDFTLKISRVEAEDVGVYYCMQGTHWPPGTFGGGTKLEIK
notes: as for B1
B4: scFv 3E11 (scFv, V domains shown)
VH: QVQLVQSGGGVVQPGRSLRLSCAASGFTFSSYGLHWVRQAPGKGLEWVAAISYDGSKKYYADSVKGRLTISRDNSKNTLYLQMNSLSPEDTALYFCARGWFVEPLSWGQGTLVTVSS
VL: not shown
notes: Human scFv secreted by yeast (p416-BCCR vector), one polypeptide; purified on nickel/anti-HIS and detected with anti-V5, so it carries His and V5 tags

How the values were obtained:
[1] = target: T1, full-length glycosylated recombinant hGPC3 protein expressed in a murine myeloma cell line (human, UniProt P51654 25-559, limits assumed); assay: direct ELISA on rhGPC3 coated at 1 ug/ml
T1 construct: Bought protein; also called rhGPC3; full length hGPC3 protein expressed by mammalian cells
T1 sequence (P51654 25-559 limits assumed): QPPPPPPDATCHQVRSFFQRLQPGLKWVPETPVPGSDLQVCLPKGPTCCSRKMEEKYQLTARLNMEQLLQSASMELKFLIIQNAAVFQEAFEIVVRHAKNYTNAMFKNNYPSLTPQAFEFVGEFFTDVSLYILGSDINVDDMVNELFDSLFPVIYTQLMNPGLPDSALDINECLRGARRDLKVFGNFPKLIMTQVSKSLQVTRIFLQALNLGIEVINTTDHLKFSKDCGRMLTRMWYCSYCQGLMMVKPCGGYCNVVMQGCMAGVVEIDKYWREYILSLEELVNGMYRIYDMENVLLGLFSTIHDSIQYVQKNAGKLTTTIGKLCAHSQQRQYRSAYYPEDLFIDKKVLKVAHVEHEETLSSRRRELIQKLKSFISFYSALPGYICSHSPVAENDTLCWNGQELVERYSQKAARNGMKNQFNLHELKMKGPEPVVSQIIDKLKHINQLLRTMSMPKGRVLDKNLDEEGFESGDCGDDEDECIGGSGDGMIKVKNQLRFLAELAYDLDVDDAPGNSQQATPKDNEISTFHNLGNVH
Experimental: (§1) FIG. 4A depicts the results of immunoblot analysis of binding of scFv to rhGPC3. The antigens including rhGPC3 and GST protein were spotted onto cellulose membrane (10 ng/each). After the blocking step the membrane were incubated with the scFvs antibody in room temperature for 1 h. The binding of scFv to antigen was detected by incubation with mouse anti-V5 mAb following by infrared dye IR680-labeled anti-mouse antibodies. PBS was used as negative control. FIG. 4B depicts results of direct ELISA for affinity determination of scFv 3E11. Two different concentrations of rhGPC3 protein (0.5 and 1.0 ug/ml) were coated and incubated with serial diluted scFv 3E11. For detection, mouse-sourced anti-V5 mAb following HRP-conjugated anti-mouse antibody and SureBlue substrate (measured at 450 nm) was used. FIG. 4C depicts EC50 values for 5 candidate scFvs determined by direct ELISA, Assays were performed twice separately for each scFv.
(§2) After three washing steps with PBS/0.1% Tween-20 (PBST), 300 ul per well of blocking solution (2% milk in PBS pH 7) was added for 2 h at room temperature then washed three tinmes with PBST. Candidate scFv starting at 100 ug/ml were added with serial dilutions, incubated for Ih at room temperature followed by three washing steps with PBST, scFv binding was detected by adding anti-V5 HRP (Invitrmgen), washing ×4 with PBST, washing ×1 with PBS, then adding 50 ul/well of TMB peroxidase substrate (KPL, Gaithersburg Md.) plus peroxidase substrate solution B at 1:1 ratio, then the reaction was stopped using 50 ul of 0.5M H₂SO₄. OD450 was measured using a BioRad 680 microplate reader. For determination of functional affinity, half maximal binding concentration (EC50) was calculated with non-linear regression curve fit algorithm using the software program PRISM (GraphPad Software, San Diego, Calif.). rhGPC3 expressed in a murine myeloma cell line which was commercially obtained from R&D Systems (Minneapolis Minn.).

GST protein = GST protein (UniProt P08515 1-218 = GST); assay: dot blot, 10 ng GST per spot, scFv detected with anti-V5 mAb and IR680 anti-mouse
Chain of GST protein (P08515 whole entry): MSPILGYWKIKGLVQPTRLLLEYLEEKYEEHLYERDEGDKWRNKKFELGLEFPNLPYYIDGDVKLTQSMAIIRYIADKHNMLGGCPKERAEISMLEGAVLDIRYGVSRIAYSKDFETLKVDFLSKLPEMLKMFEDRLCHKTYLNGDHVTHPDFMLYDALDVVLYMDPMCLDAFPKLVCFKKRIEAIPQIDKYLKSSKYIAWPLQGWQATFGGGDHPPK
Experimental: as §1

[2] = target: T1, full-length glycosylated recombinant …; assay: direct ELISA on rhGPC3 coated at 0.5 ug/ml
Experimental: as §1, §2

[3] = target: T1, full-length glycosylated recombinant …; assay: direct ELISA, rhGPC3 coated at 1 ug/ml; rhGPC3 at 1 ug/ml
Experimental: as §1
(§3) After three washing steps with PBS/0.1% Tween-20 (PBST), 300 ul per well of blocking solution (2% milk in PBS pH 7) was added for 2 h at room temperature then washed three tinmes with PBST. […] OD450 was measured using a BioRad 680 microplate reader. […]

[4] = target: T1, full-length glycosylated recombinant …; assay: direct ELISA, rhGPC3 coated at 0.5 ug/ml; rhGPC3 at 0.5 ug/ml
Experimental: as §1, §3

[5] = target: T1, full-length glycosylated recombinant …; assay: direct ELISA on rhGPC3, lower coat (open circles; key prints '0.5mg/ml', legend says 0.5 ug/ml)
Experimental: as §1, §3

[6] = target: T1, full-length glycosylated recombinant …; assay: ELISA on rhGPC3 precoated at 1 ug/ml; drawn table headed 'Table 1. Kd of scFv candidates', column EC50 (nM)

Binder	EC50 [1] [µM]	binding result (GST protein)	EC50 [2] [µM]	EC50 [3] [µM]	EC50 [4] [µM]	EC50 (read off the curve) [5] [µM]	EC50 [6] [µM]
B1	0.111	no binding					
B2		no binding	0.0388				
B3	0.0947		0.105				
B4	0.0111	no binding	0.012	0.014	0.011	~0.01	0.012
